Values quoted from earlier work in PMC8910494.

Molecular target: FICD (Homo sapiens) (UniProt Q9BVA6)

Kd: 1.2 nM
Substance: FICD (from UniProt Q9BVA6)
